The supplement of paper PMC5998384

Experiments:
[1] = tested on: HeLa Kyoto; assay: solubility in G1/S (NP-40 vs SDS abundance) (log2 ratio); higher = more soluble; conditions: cell cycle stage: G1/S
[2] = tested on: HeLa Kyoto; assay: melting temperature (median over replicates), in situ; higher = more thermally stable
[3] = tested on: HeLa Kyoto; assay: solubility change mitosis vs G1/S (difference of NP-40 vs SDS log2 ratios) (log2 ratio difference); higher = more soluble in mitosis
[4] = tested on: HeLa Kyoto; assay: thermal stability score vs G1/S (z-score of summed log2 fold changes over temperatures); higher = more thermally stable than in G1/S
[5] = cell cycle stage: early G1 (4.5 h after nocodazole release)
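Wherever melting temperature (median over replicates), in situ is given: HeLa Kyoto cells synchronized by double thymidine or nocodazole block, proteins quantified by TMT10plex mass spectrometry, three independent biological replicates.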
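Wherever solubility change mitosis vs G1/S (difference of NP-40 vs SDS log2 ratios) is given: synchronized HeLa Kyoto cells (double thymidine block for G1/S, nocodazole release for mitosis), protein amounts in NP-40 versus SDS lysates quantified by mass spectrometry, three biological replicates.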
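Wherever solubility in G1/S (NP-40 vs SDS abundance) is given: HeLa Kyoto cells arrested at G1/S by double thymidine block, proteins quantified by TMT10plex mass spectrometry in mild NP-40 versus SDS extracts, three biological replicates.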
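Wherever thermal stability score vs G1/S (z-score of summed log2 fold changes over temperatures) is given: synchronized HeLa Kyoto cells, proteins quantified by TMT10plex mass spectrometry, three biological replicates, mitosis taken 0.5 h after nocodazole release, G1/S directly after double thymidine block.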

| Sequence | solubility in G1/S (log2) [1] | melting temperature ([2]; cell cycle stage: G1/S) [°C] | melting temperature ([2]; cell cycle stage: mitosis) [°C] | solubility change mitosis (log2) [3] | thermal stability score [4, 5] | thermal stability score ([4]; cell cycle stage: mitosis) |
| --- | --- | --- | --- | --- | --- | --- |
| MSLSHLYRDGEGRIDDDDDERENFEITDWDLQNEFNPNRQRHWQTKEEATYGVWAERDSDDERPSFGGKRARDYSAPVNFISAGLKKGAAEEAELEDSDDEEKPVKQDDFPKDFGPRKLKTGGNFKPSQKGFAGGTKSFMDFGSWERHTKGIGQKLLQKMGYVPGRGLGKNAQGIINPIEAKQRKGKGAVGAYGSERTTQSMQDFPVVDSEEEAEEEFQKELSQWRKDPSGSKKKPKYSYKTVEELKAKGRISKKLTAPQKELSQVKVIDMTGREQKVYYSYSQISHKHNVPDDGLPLQSQQLPQSGKEAKAPGFALPELEHNLQLLIDLTEQEIIQNDRQLQYERDMVVNLFHELEKMTEVLDHEERVISNLSKVLEMVEECERRMQPDCSNPLTLDECARIFETLQDKYYEEYRMSDRVDLAVAIVYPLMKEYFKEWDPLKDCTYGTEIISKWKSLLENDQLLSHGGQDLSADAFHRLIWEVWMPFVRNIVTQWQPRNCDPMVDFLDSWVHIIPVWILDNILDQLIFPKLQKEVENWNPLTDTVPIHSWIHPWLPLMQARLEPLYSPIRSKLSSALQKWHPSDSSAKLILQPWKDVFTPGSWEAFMVKNIVPKLGMCLGELVINPHQQHMDAFYWVIDWEGMISVSSLVGLLEKHFFPKWLQVLCSWLSNSPNYEEITKWYLGWKSMFSDQVLAHPSVKDKFNEALDIMNRAVSSNVGAYMQPGARENIAYLTHTERRKDFQYEAMQERREAENMAQRGIGVAASSVPMNFKDLIETKAEEHNIVFMPVIGKRHEGKQLYTFGRIVIYIDRGVVFVQGEKTWVPTSLQSLIDMAK [TFIP11] | -0.472 | 48.4 | 48.9 | 0.115 | 0.21 | 1.2 |
| MSLSNKLTLDKLDVKGKRVVMRVDFNVPMKNNQITNNQRIKAAVPSIKFCLDNGAKSVVLMSHLGRPDGVPMPDKYSLEPVAVELKSLLGKDVLFLKDCVGPEVEKACANPAAGSVILLENLRFHVEEEGKGKDASGNKVKAEPAKIEAFRASLSKLGDVYVNDAFGTAHRAHSSMVGVNLPQKAGGFLMKKELNYFAKALESPERPFLAILGGAKVADKIQLINNMLDKVNEMIIGGGMAFTFLKVLNNMEIGTSLFDEEGAKIVKDLMSKAEKNGVKITLPVDFVTADKFDENAKTGQATVASGIPAGWMGLDCGPESSKKYAEAVTRAKQIVWNGPVGVFEWEAFARGTKALMDEVVKATSRGCITIIGGGDTATCCAKWNTEDKVSHVSTGGGASLELLEGKVLPGVDALSNI [PGK1] | 0.376 | 53.8 | 53.9 | -0.0583 | 1.07 | 0.993 |
| MSLTSSSSVRVEWIAAVTIAAGTAAIGYLAYKRFYVKDHRNKAMINLHIQKDNPKIVHAFDMEDLGDKAVYCRCWRSKKFPFCDGAHTKHNEETGDNVGPLIIKKKET [CISD1] | 0.633 | 57.1 | 55.3 | 0.0262 | -0.277 | -1.59 |
| MSLVAYASSDESEPDEAEPEPEEEEAVAPTSGPALGGLFASLPAPKGPALLPPPPQMLAPAFPPPLLLPPPTGDPRLQPPPPLPFGLGGFPPPPGVSPAEAAGVGEGLGLGLPSPRGPGLNLPPPIGGAGPPLGLPKPKKRKEPVKIAAPELHKGDSDSEEDEPTKKKTILQGSSEGTGLSALLPQPKNLTVKETNRLLLPHAFSRKPSDGSPDTKPSRLASKTKTSSLAPVVGTTTTTPSPSAIKAAAKSAALQVTKQITQEEDDSDEEVAPENFFSLPEKAEPPGVEPYPYPIPTVPEELPPGTEPEPAFQDDAANAPLEFKMAAGSSGAPWMPKPGDDYSYNQFSTYGDANAAGAYYQDYYSGGYYPAQDPALVPPQEIAPDASFIDDEAFKRLQGKRNRGREEINFVEIKGDDQLSGAQQWMTKSLTEEKTMKSFSKKKGEQPTGQQRRKHQITYLIHQAKERELELKNTWSENKLSRRQTQAKYGF [PRCC] | 0.46 | 53.2 | 53.8 | -0.00665 | -2.8 | -0.438 |
| MSMEDYDFLFKIVLIGNAGVGKTCLVRRFTQGLFPPGQGATIGVDFMIKTVEINGEKVKLQIWDTAGQERFRSITQSYYRSANALILTYDITCEESFRCLPEWLREIEQYASNKVITVLVGNKIDLAERREVSQQRAEEFSEAQDMYYLETSAKESDNVEKLFLDLACRLISEARQNTLVNNVSSPLPGEGKSISYLTCCNFN [RAB30] | -0.379 | 51.3 | 51.7 | -0.0812 | 0.727 | 1.4 |
| MSMLKPSGLKAPTKILKPGSTALKTPTAVVAPVEKTISSEKASSTPSSETQEEFVDDFRVGERVWVNGNKPGFIQFLGETQFAPGQWAGIVLDEPIGKNDGSVAGVRYFQCEPLKGIFTRPSKLTRKVQAEDEANGLQTTPASRATSPLCTSTASMVSSSPSTPSNIPQKPSQPAAKEPSATPPISNLTKTASESISNLSEAGSIKKGERELKIGDRVLVGGTKAGVVRFLGETDFAKGEWCGVELDEPLGKNDGAVAGTRYFQCQPKYGLFAPVHKVTKIGFPSTTPAKAKANAVRRVMATTSASLKRSPSASSLSSMSSVASSVSSRPSRTGLLTETSSRYARKISGTTALQEALKEKQQHIEQLLAERDLERAEVAKATSHVGEIEQELALARDGHDQHVLELEAKMDQLRTMVEAADREKVELLNQLEEEKRKVEDLQFRVEEESITKGDLEQKSQISEDPENTQTKLEHARIKELEQSLLFEKTKADKLQRELEDTRVATVSEKSRIMELEKDLALRVQEVAELRRRLESNKPAGDVDMSLSLLQEISSLQEKLEVTRTDHQREITSLKEHFGAREETHQKEIKALYTATEKLSKENESLKSKLEHANKENSDVIALWKSKLETAIASHQQAMEELKVSFSKGLGTETAEFAELKTQIEKMRLDYQHEIENLQNQQDSERAAHAKEMEALRAKLMKVIKEKENSLEAIRSKLDKAEDQHLVEMEDTLNKLQEAEIKVKELEVLQAKCNEQTKVIDNFTSQLKATEEKLLDLDALRKASSEGKSEMKKLRQQLEAAEKQIKHLEIEKNAESSKASSITRELQGRELKLTNLQENLSEVSQVKETLEKELQILKEKFAEASEEAVSVQRSMQETVNKLHQKEEQFNMLSSDLEKLRENLADMEAKFREKDEREEQLIKAKEKLENDIAEIMKMSGDNSSQLTKMNDELRLKERDVEELQLKLTKANENASFLQKSIEDMTVKAEQSQQEAAKKHEEEKKELERKLSDLEKKMETSHNQCQELKARYERATSETKTKHEEILQNLQKTLLDTEDKLKGAREENSGLLQELEELRKQADKAKAAQTAEDAMQIMEQMTKEKTETLASLEDTKQTNAKLQNELDTLKENNLKNVEELNKSKELLTVENQKMEEFRKEIETLKQAAAQKSQQLSALQEENVKLAEELGRSRDEVTSHQKLEEERSVLNNQLLEMKKRESKFIKDADEEKASLQKSISITSALLTEKDAELEKLRNEVTVLRGENASAKSLHSVVQTLESDKVKLELKVKNLELQLKENKRQLSSSSGNTDTQADEDERAQESQIDFLNSVIVDLQRKNQDLKMKVEMMSEAALNGNGDDLNNYDSDDQEKQSKKKPRLFCDICDCFDLHDTEDCPTQAQMSEDPPHSTHHGSRGEERPYCEICEMFGHWATNCNDDETF [CLIP1] | 0.37 | 54.7 | 54.2 | -0.0152 | -1.53 | -1.75 |
| MSNAKERKHAKKMRNQPTNVTLSSGFVADRGVKHHSGGEKPFQAQKQEPHPGTSRQRQTRVNPHSLPDPEVNEQSSSKGMFRKKGGWKAGPEGTSQEIPKYITASTFAQARAAEISAMLKAVTQKSSNSLVFQTLPRHMRRRAMSHNVKRLPRRLQEIAQKEAEKAVHQKKEHSKNKCHKARRCHMNRTLEFNRRQKKNIWLETHIWHAKRFHMVKKWGYCLGERPTVKSHRACYRAMTNRCLLQDLSYYCCLELKGKEEEILKALSGMCNIDTGLTFAAVHCLSGKRQGSLVLYRVNKYPREMLGPVTFIWKSQRTPGDPSESRQLWIWLHPTLKQDILEEIKAACQCVEPIKSAVCIADPLPTPSQEKSQTELPDEKIGKKRKRKDDGENAKPIKKIIGDGTRDPCLPYSWISPTTGIIISDLTMEMNRFRLIGPLSHSILTEAIKAASVHTVGEDTEETPHRWWIETCKKPDSVSLHCRQEAIFELLGGITSPAEIPAGTILGLTVGDPRINLPQKKSKALPNPEKCQDNEKVRQLLLEGVPVECTHSFIWNQDICKSVTENKISDQDLNRMRSELLVPGSQLILGPHESKIPILLIQQPGKVTGEDRLGWGSGWDVLLPKGWGMAFWIPFIYRGVRVGGLKESAVHSQYKRSPNVPGDFPDCPAGMLFAEEQAKNLLEKYKRRPPAKRPNYVKLGTLAPFCCPWEQLTQDWESRVQAYEEPSVASSPNGKESDLRRSEVPCAPMPKKTHQPSDEVGTSIEHPREAEEVMDAGCQESAGPERITDQEASENHVAATGSHLCVLRSRKLLKQLSAWCGPSSEDSRGGRRAPGRGQQGLTREACLSILGHFPRALVWVSLSLLSKGSPEPHTMICVPAKEDFLQLHEDWHYCGPQESKHSDPFRSKILKQKEKKKREKRQKPGRASSDGPAGEEPVAGQEALTLGLWSGPLPRVTLHCSRTLLGFVTQGDFSMAVGCGEALGFVSLTGLLDMLSSQPAAQRGLVLLRPPASLQYRFARIAIEV [POP1] | -0.778 | 52.2 | 51.8 | 0.246 | 1.22 | -1.05 |
| MSNIYIQEPPTNGKVLLKTTAGDIDIELWSKEAPKACRNFIQLCLEAYYDNTIFHRVVPGFIVQGGDPTGTGSGGESIYGAPFKDEFHSRLRFNRRGLVAMANAGSHDNGSQFFFTLGRADELNNKHTIFGKVTGDTVYNMLRLSEVDIDDDERPHNPHKIKSCEVLFNPFDDIIPREIKRLKKEKPEEEVKKLKPKGTKNFSLLSFGEEAEEEEEEVNRVSQSMKGKSKSSHDLLKDDPHLSSVPVVESEKGDAPDLVDDGEDESAEHDEYIDGDEKNLMRERIAKKLKKDTSANVKSAGEGEVEKKSVSRSEELRKEARQLKRELLAAKQKKVENAAKQAEKRSEEEEAPPDGAVAEYRREKQKYEALRKQQSKKGTSREDQTLALLNQFKSKLTQAIAETPENDIPETEVEDDEGWMSHVLQFEDKSRKVKDASMQDSDTFEIYDPRNPVNKRRREESKKLMREKKERR [CWC27] | 0.0954 | 47.3 | 49.8 | 0.0672 | 0.415 | 1.04 |
| MSNSRPRSRRDAGGGAGAAGRDELVSRSLQSAEHCLGVQDFGTAYAHYLLVLSLAPELKHDVKETFQYTLFRWAEELDALSRIQDLLGCYEQALELFPDDEVICNSMGEHLFRMGFRDEAAGYFHKAVKLNPDFSDAKENFYRVANWLVERWHFIMLNDTKRNTIYNAAIQKAVCLGSKSVLDIGAGTGILSMFAKKAGAHSVYACELSKTMYELACDVVAANKMEAGIKLLHTKSLDIEIPKHIPERVSLVVTETVDAGLFGEGIVESLIHAWEHLLLQPKTKGESANCEKYGKVIPASAVIFGMAVECAEIRRHHRVGIKDIAGIHLPTNVKFQSPAYSSVDTEETIEPYTTEKMSRVPGGYLALTECFEIMTVDFNNLQELKSLATKKPDKIGIPVIKEGILDAIMVWFVLQLDDEHSLSTSPSEETCWEQAVYPVQDLADYWIKPGDHVMMEVSCQDCYLRIQSISVLGLECEMDVAKSFTQNKDLLSLGNEAELCSALANLQTSKPDAVEQTCILESTEIALLNNIPYHEGFKMAMSKVLSSLTPEKLYQTMDTHCQNEMSSGTGQSNTVQNILEPFYVLDVSEGFSVLPVIAGTLGQVKPYSSVEKDQHRIALDLISEANHFPKETLEFWLRHVEDESAMLQRPKSDKLWSIIILDVIEPSGLIQQEIMEKAAISRCLLQSGGKIFPQYVLMFGLLVESQTLLEENAVQGTERTLGLNIAPFINQFQVPIRVFLDLSSLPCIPLSKPVELLRLDLMTPYLNTSNREVKVYVCKSGRLTAIPFWYHMYLDEEIRLDTSSEASHWKQAAVVLDNPIQVEMGEELVLSIQHHKSNVSITVKQ [PRMT9] | -0.21 | 50.8 | 51.1 | -0.0806 | 0.367 | 0.336 |
